Assay results taken from patent publication US20180105597A1 (Eli Lilly, published 2018).

T1: FcγR2a(H) (human, UniProt P12318 36-218)
T1 construct: also called human Fc-gamma receptor 2a, H form
T1 sequence (looked up): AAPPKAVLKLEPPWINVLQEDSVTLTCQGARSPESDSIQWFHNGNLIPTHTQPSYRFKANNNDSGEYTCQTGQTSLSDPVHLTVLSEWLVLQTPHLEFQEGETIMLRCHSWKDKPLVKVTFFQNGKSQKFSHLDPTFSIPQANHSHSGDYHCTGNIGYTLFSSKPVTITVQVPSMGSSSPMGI


Assays:
[1] = target: T2, huTGFβ RIIFc (recombinant extracellular domain of human TGFβ RII fused to Fc) (human, UniProt P37173 23-166); test: ELISA, huTGFβ RIIFc coated, antibody titrated; LY3022859; binding ELISA
T2 construct: The Fc is not described; also called human TGFβ RIIFc; not shown: Fc part
Protocol: (§1) For binding assays, huTGFβ RIIFc was coated on microplates. […] After washing, plates were incubated with HRP-labelled goat anti-rat Fab detection antibody and subsequently TMB peroxidase substrate was added to the wells for color development. The values of absorbance at 405 nm were read on a microtiter plate reader (Molecular Devices Corp). EC₅₀ of the antibodies was analyzed using GraphPad Prism.

TGFβ RII AP [2] = target: T3, TGFβ RII AP (UniProt P37173 23-166); test: ligand blocking ELISA, TGFβ RII AP binding to coated TGFβ ligand 1 (competitor)
Protocol: (§2) A serial dilution of purified antibodies was incubated with TGFβ RII AP for 1 h in TGFβ-coated plates. After wash, p-nitrophenyl phosphate substrate was added to the wells for color development. The values of absorbance at 405 nm were read on a microtiter plate reader (Molecular Devices Corp) for the quantification of TGFβ RII binding to TGFβ. IC50 of the antibodies was analyzed using GraphPad Prism.

TGFβ RII AP [3] = target: T3, TGFβ RII AP; test: ligand blocking ELISA, TGFβ RII AP binding to coated TGFβ ligand 2 (competitor)
Protocol: as §2

TGFβ RII AP [4] = target: T3, TGFβ RII AP; test: ligand blocking ELISA, TGFβ RII AP binding to coated TGFβ ligand 3 (competitor)
Protocol: as §2

[5] = target: T2, huTGFβ RIIFc (recombinant extracellular …); test: SPR (Biacore), TGFβ RII-Fc extracellular domain immobilized at low density; LY3022859; KD
Protocol: (§3) The association (kon) and dissociation (koff) rates were determined using BIAevaluation 2.1 software.

human C1q = human C1q (human, UniProt P02745 23-245; P02746 28-253; P02747 29-245); test: cell-based or functional assay
[6] = target: T2, huTGFβ RIIFc (recombinant extracellular …); test: ELISA, huTGFβ RIIFc coated, antibody titrated; Antibody A; binding ELISA
Protocol: as §1

FcγR1 = target: T4, FcγR1 (human, UniProt P12314 16-288); test: solid phase binding assay (Meso Scale), receptor coated, antibody titrated
T4 construct: also called human Fc-gamma receptor 1
Protocol: (§4) Receptor protein (50 ng/well) was added to the wells of a Meso Scale standard bare plate in PBS. […] The plates were washed three times in PBS/0.05% Tween-20. Stock solutions of all antibodies were prepared at 0.5 mg/mL in 1% MSD blocker A in PBS-Tween and serially diluted 1:3. The indicated antibodies were added to each reaction well. Recombinant protein and antibodies were incubated for 2 hours at room temperature and then the plates were washed 2 times with PBS/0.05% Tween. Secondary antibody was added to each well. After one hour at room temperature with agitation followed by 40 mins at room temperature, the plates were washed 2 times with PBS/0.05% Tween-20. For detection, 150 μL of a 1× Read Buffer (MSD cat # R92TC-1, 4×) were added to each well. The plate was then read using a Sector Imager 2400.

FcγR2a(H) = target: T1, FcγR2a(H); test: as above
Protocol: as §4

FcγR3a (V) = target: T5, FcγR3a (V) (human, UniProt P08637 17-208); test: as above
T5 construct: V158 allotype as printed
Protocol: as §4

[7] = target: T2, huTGFβ RIIFc (recombinant extracellular …); test: SPR (Biacore), TGFβ RII-Fc extracellular domain immobilized at low density; Antibody A; KD
Protocol: as §3

human C1q, sequence (P02745 23-245 limits assumed, chain 1 of 3): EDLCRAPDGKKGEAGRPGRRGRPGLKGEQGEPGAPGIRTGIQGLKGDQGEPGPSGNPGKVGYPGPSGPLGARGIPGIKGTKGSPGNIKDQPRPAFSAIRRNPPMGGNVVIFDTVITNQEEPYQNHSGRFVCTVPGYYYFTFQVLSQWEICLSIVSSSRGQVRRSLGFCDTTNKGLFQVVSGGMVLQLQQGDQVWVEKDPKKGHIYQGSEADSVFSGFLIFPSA
human C1q, sequence (P02746 28-253 limits assumed, chain 2 of 3): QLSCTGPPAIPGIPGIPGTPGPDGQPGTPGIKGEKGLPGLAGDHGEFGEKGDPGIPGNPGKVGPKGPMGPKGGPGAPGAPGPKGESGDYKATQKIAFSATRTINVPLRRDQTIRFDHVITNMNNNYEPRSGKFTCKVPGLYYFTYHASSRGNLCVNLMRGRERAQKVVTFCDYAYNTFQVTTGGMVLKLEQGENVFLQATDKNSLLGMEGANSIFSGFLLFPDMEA
human C1q, sequence (P02747 29-245 limits assumed, chain 3 of 3): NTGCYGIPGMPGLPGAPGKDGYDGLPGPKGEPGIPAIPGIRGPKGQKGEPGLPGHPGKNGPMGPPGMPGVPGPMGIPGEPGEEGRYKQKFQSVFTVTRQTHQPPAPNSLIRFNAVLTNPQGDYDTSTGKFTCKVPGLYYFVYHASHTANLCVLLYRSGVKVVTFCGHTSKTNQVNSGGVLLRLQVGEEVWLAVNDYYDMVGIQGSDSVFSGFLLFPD
T3 sequence (P37173 23-166): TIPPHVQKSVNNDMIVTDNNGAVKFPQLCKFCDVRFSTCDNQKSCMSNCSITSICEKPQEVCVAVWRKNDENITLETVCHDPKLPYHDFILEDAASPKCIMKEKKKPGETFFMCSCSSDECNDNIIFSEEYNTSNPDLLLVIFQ
T2 sequence (P37173 23-166): as above
T5 sequence (P08637 17-208 F176V): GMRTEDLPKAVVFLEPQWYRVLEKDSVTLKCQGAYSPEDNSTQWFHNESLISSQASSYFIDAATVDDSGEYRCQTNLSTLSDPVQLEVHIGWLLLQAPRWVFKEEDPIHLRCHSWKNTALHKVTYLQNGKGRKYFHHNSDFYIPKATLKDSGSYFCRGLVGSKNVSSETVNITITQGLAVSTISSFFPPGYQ
T4 sequence (P12314 16-288): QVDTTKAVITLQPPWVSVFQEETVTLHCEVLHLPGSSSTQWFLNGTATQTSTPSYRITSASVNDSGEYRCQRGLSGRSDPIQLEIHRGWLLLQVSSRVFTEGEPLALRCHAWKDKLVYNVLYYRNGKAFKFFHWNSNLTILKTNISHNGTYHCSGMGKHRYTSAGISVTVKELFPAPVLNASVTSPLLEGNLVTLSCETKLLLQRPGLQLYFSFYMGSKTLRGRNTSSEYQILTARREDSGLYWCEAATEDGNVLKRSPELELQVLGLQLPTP

EC50 [1]	IC50 (TGFβ RII AP [2])	IC50 (TGFβ RII AP [3])	IC50 (TGFβ RII AP [4])	Kd [5]	CDC activity EC50 (nM), BxPC3 target cells, human complement (human C1q)	CDC activity EC50 (nM), HEK293 target cells, human complement (human C1q)	CDC activity EC50 (nM), MDA-MB-231 target cells, human complement (human C1q)	CDC activity EC50 (nM), TGFRβII-HEK target cells, human complement (human C1q)	EC50 [6]	EC50 (FcγR1)	EC50 (FcγR2a(H))	EC50 (FcγR3a (V))	Kd [7]	Binder
0.306 nM	5.48 nM	4.45 nM	4.41 nM	0.0106 nM										LY3022859 (antibody, IgG1, V domains shown, the antibody is disclosed in WO 2010/053814; also called TGFβRII mAb LY3022859; anti-TGFβ RII antibody IgG1) VH: QLQVQESGPGLVKPSETLSLTCTVSGGSISNSYFSWGWIRQPPGKGLEWIGSFYYGEKTYYNPSLKSRATISIDTSKSQFSLKLSSVTAADTAVYYCPRGPTMIRGVIDSWGQGTLVTVSS VL: EIVLTQSPATLSLSPGERATLSCRASQSVRSYLAWYQQKPGQAPRLLIYDASNRATGIPARFSGSGSGTDFTLTISSLEPEDFAVYYCQQRSNWPPTFGQGTKVEIK
	4.83 nM	4.4 nM	4.36 nM		> 200 nM	> 200 nM	> 200 nM	> 200 nM	0.277 nM	> 2000 nM	> 2000 nM	> 2000 nM	0.0222 nM	Antibody A (antibody, human IgG1, kappa, same variable regions as LY3022859; also called anti-TGFβ RII antibody IgG1 effector null) heavy: QLQVQESGPGLVKPSETLSLTCTVSGGSISNSYFSWGWIRQPPGKGLEWIGSFYYGEKTYYNPSLKSRATISIDTSKSQFSLKLSSVTAADTAVYYCPRGPTMIRGVIDSWGQGTLVTVSSASTKGPSVFPLAPSSKSTSGGTAALGCLVKDYFPEPVTVSWNSGALTSGVHTFPAVLQSSGLYSLSSVVTVPSSSLGTQTYICNVNHKPSNTKVDKRVEPKSCDKTHTCPPCPAPEAEGAPSVFLFPPKPKDTLMISRTPEVTCVVVDVSHEDPEVKFNWYVDGVEVHNAKTKPREEQYNSTYRVVSVLTVLHQDWLNGKEYKCKVSNKALPSSIEKTISKAKGQPREPQVYTLPPSREEMTKNQVSLTCLVKGFYPSDIAVEWESNGQPENNYKTTPPVLDSDGSFFLYSKLTVDKSRWQQGNVFSCSVMHEALHNHYTQKSLSLSPGK light: not shown
